Test: protease stability score; higher = more stable; yeast display proteolysis, trypsin and chymotrypsin;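 note: log10 excess protease needed over predicted unfolded state with 0 meaning unfolded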

DDDKRKQFEDYMRKFKTGNEEDLVRNMDKDVDVHIGDKTWDGREEAAHELAQHRRHARIEYKSLSVDDKGDKLQVKMQYVDEHNGTPRDSHVVATLRLKNGKIRMIDVKRDG
protease stability score: -0.17

DDDKVRESVNNMLHAMQNGDHDRFRKMADENVRIEVGDKEYKGREKAAEHIKEVVDRVDHIQVESVKVHNGRARANLNMVVNGHSARATLNVNANNGRVVVVEMDPDQIRKAES
protease stability score: -0.629

DDDKVTKVNELLENIKRGNEDDIRDLMDPNARVRIGDKDFHGREEVSDTWKQIRDTAHLSFTDVKNDDQGDHVYVRARFHQTHNGKPDTSVLHLEVTIRNGKIKEAQFHETP
protease stability score: -0.159

DDDLKRKVHKFVEDWKDGDPHRLNHMADEDVRFQVGDKEIHGRKQMHEEVDKEKKEMRRHIDHLELDNQGNTVRVRFELTFTHNGKPFKVDVTIDMEFDGDRLKQAVQRVPREDQTKVKN
protease stability score: -0.209

DDDLRRRLHEFWENMQEGDEKRLREMADPNVRFEVGDKSIHGREEFARKVKELHEQQRFSVRIDRMDNQGNKVDITFHVTQKHNGRPNRYTARVTITAHNGKIKSVSVDISQ
protease stability score: 0.391

DDDLTRKVEKFMRNVQKGNEEELKKMMDPNVHAEVGDKVYHGREDAVEKRVTHYHEQNWRYEDIDLKVEGDRAKAKVVRVVNINGKPIRFEFSVNMRFHNGKITRINNDLPEEVLHKLKR
protease stability score: 0.118

DDDLVRKAKKFYEIVETGDEDKIVKMLDKDAQINVGDRRIDGREDIKTFEHKQVQHMRIEFDSVHASHQGDKVRVRAQMTVDVNGNPITYQAEFVFNVKNGRIKNLEQRVDEKEMKKIKS
protease stability score: 0.007

DDDLVRKLNHMVKVMQNGDPDKIVDQMDPNARLIVGDKNVHGRDEARRFMEKVNKHLRFEIKSVTLHDRPNNANADVDANFHINGRPVRLKYIIVVSVHNGRIKEVQLRLSEDQERKLEK
protease stability score: 0.71

DDDNARELVKRIMKAWQTGDEKELNKNMDPNVRIEVGDKTWHGREDVSKMARELRKQVDSIEVKDVEVQGNHANADVVQVVNGEQKHYLVIIDFHNGKARRLKIEER
protease stability score: 2.11

DDDNFRRFKDLQHAENRGDPDRVMELVDPNAHIRVGNTTLKGTKQIKDWVEHILKNWDEQLHSVDEKFQGNHITARYQMEINVNGEPEHFDVTQMATLDNGKIQNRVVRVSEDDLENIER
protease stability score: -0.247

DDDNKRKAETYMKNLHTGDPDKATEYMDKDAKIQYGDKSVHGRHQWREEIERRRKELRFTVDLHRLHVQGEKFDLKYIEHNNHNGNPKSQSASVTYRMHNGRVHSIQYSYTK
protease stability score: -0.237

DDDNKRVVERFLRAQQEGDPDTAKENADENAHFHYGDRRITGRESYAEWMERRKKESRVEFRIDQMNVSGDRIDVHFQMQVRHNGRPERFEARMVIKITNGHIVQVRVEKKE
protease stability score: 0.207

DDDNLKRQNEDVNRAVQHGDEKKVADMADPNVKVYYGDKEIHGREKVKEWWKRLADRADSFTVVDIELQGEKIRVRVKANIDGKHVDMEFEAHASNGRVKKMHINPDQFRQLRS
protease stability score: 0.445

DDDNVRKMNEMFNALETGDEHKLKKQFDPNAHIRIGDQTYHGMDDYARKFRHKRNNMRQSYESYTITNEGDKVTIEATFSRRHNGTPERKKVVVEVDIRGDQAKSATVQDDR
protease stability score: 0.032

DDDNVRKYVELMHEGDNEQLVRLADPNVRLQVGDKQYDGREDFEHHLRQIHTQADHFQVQDYHFEGDKAVMDVVMTVNGHQFRFKIHVEVRNGEVKQVQWDFTDPNQRDRFRNNLS
protease stability score: 0.611

DDDQARKFVNIVQTGDEDKLLELAPPDVRVKVGDHRVHGRENVKRMVEKLKKSVDHFSIRQIHVHNGRVHVDMDVNVNGQTIRAEYVFVAHNGKLEEISIEVTDETVHDLMTRILS
protease stability score: 0.665

DDDQKRRVEDWWKVLNHGDPDKLRTLADENAKFDVGDKKYHGMTRAADELVRTLREIRLNIRRMEIQVHNGRVVANVDAEVRVNGNPMQIHYTAQMTASNGKITSVQNRIPSEQLKRLRK
protease stability score: 0.165

DDDQLDRNATQMMEALQTGDEQTLNNLVDPDVRFHIGDKVVHGRDQWNEQVKKIRDRADRIHIKHVEAQGDKVRMEFVLNINGRNIRVRMEAEVHNGRFKVITFDPEQVKEMRK
protease stability score: 1.19

DDDQLRKFLEILRSGNEDDMERQADKDARARVGDDHYHGREEVAHMIRNFLHRADHIEVKSVRFTGEKAKVDMHAVVNGQELRLIIEAEVHNGTLKHIVMKVTDEEHKRTLERAMS
protease stability score: 0.29

DDDQNRRFKEMLEVRKTGDEHRLKQLLDPNARLNIGDKRIHGREEIARFMKTKFDESRSEVDVKDVKAHNGRISVTADFRNSSNGQPQRYTATMRATIHNGSFQEIQIDTEK
protease stability score: -0.234

DDDQQRQAEKIVRAIRHGNEQEVDELVDENVRIEYGDKVVHGRSQLRKKMQDEKRHIRQDIKVDTVKEDGDKALIHFKNNFTVNGTPTTNTYSYEVEFTNGRAKELRIRVDPQEVRKQEK
protease stability score: -0.118

DDDQRKDYERFLRWQEENDPRKVAEQADPNARFRYGDKHVQGREEQSRRFDEQRKDARWDLDIKRVNVEGNKITVHFKMQMDRNGKPDSRDATRTIEYDNGRIQRDEVKVSS
protease stability score: -0.231

DDDQRRKAAQRAHELVKTGDPEEIEKLADKHARIQVGDKRVQGREEAKKIMKEFRERVDHIRISDVQVDGDKIKVDVVVVHNGTKKHVVFVFRVHNGKATEISLEDK
protease stability score: 0.027

DDDQRRKFERFITAVRTGSKEDLNKLIDPNAKINVGNHRYHGMEEFAKQVVTHNKDLRFHVRFKELDFSGNRVRVSYEMTMTVNGKPYQFTARVEFDVHDGSVKSVREQISEDVEQRQRN
protease stability score: 0.423

DDDQSRKLKKLFDNNNWDTLQDNADKNANIEVGNKELHGREDAEQLSEKFRDQVDHLTIESIDISGDRVIVTFVVNVNGQRVKYRVVVEAHNGRVKRMRFEFTNPEERKQYDEQLG
protease stability score: 0.899

DDDQVRKYQHWLQEQEKGNEESLMEKMDPNVRIRVGNNEVHGREQAAHDIRKTQQEIRVQIDFKSVDAHNGRFDFKFTAQFEVNGTPFRYSASATVVAHNGHIKRVEIRVDPEVQRKRNK
protease stability score: -0.079

DDDRKARDFWRKFKEVLDKGDSEENDKLVDENAKFEYGDKTLHGREDAMRWNKHLTTRVDHLRMEVEDFKVHNGKIDVQVRLDVNVNGQQRQHDVKLVAEIDGDKVKLHSLTVK
protease stability score: 0.009

DDDRRRQAEEILKIFETGDPQKLRSQFDPNARMHYGDKTIHGMEHAAESMERWQNEMRIELKSYSFRKQGDKVQIDAHFVVHHNGKPDTVKIHIRMELDGDKVREVSVEHTQ
protease stability score: 1.2

DDDRVETVAQELAEAIMENDEDRAREMVDPNARIVYGEKDLHGREAFHTVMQLFQHRVDRVDLETVSVHNGRVKFEAVLKHNGTEHRVVFIVDAHNGKAKQVEVRDQ
protease stability score: 0.862

DDDSQNEFLQRVAEAIVTGDEKSLVRMMDPNARANVGDKQFHGREQMARWARELRERVDHLQVDDLQNHNGRLHMDIQFKDNGKNKHFIIQVEAHNGKVTKMSADEK
protease stability score: 1.36

DDDTDRKVAEDAWRAFEKGDHKRLIELMDKDAEVQVGNRRVSGREKAAHEMVRMVERADHISVKSIDIRGDKATIKFQVNVNGHNQEAKVVFRVQNGRVQEVKFDPTMEKALRT
protease stability score: 1.39

DDDTTAKKAIDDFIENFEHGDPKEADKQADENVRVEYGDKEVDGRHQMAHWLVKLVERVDHVRWHIHEVRMDNGKINVIFENKQKFDGRTEDREFHMTADTRDGRIQLTSVHEK
protease stability score: 0.491

DDDVLRKVERLIEVENEGNEDEARELMDPNAEFQVGDKSVHGREEYASNMKKEQKELKIEIHHVTQSVHNGEADVHLTMRVNDNGRPKEQHYHATFEAHNGRIVYVKKQMRG
protease stability score: -0.099

DDDVMRRLLKWVKNGDWDVLAENADPNVRVNIGDFRVHGREQFKEWADKLHKKVDHFHYRDVKVNGDRVRFDFIEHFNGKTIDMDMTARAHNGRITSLDVNVRSEDDKHAFKELVS
protease stability score: 1.1

DDDVVRKAHSFFRQYQRGNPDHLLKMMDPNARVRYGDKTYQGREDLKEILQHQLDRIRIRVKRMSLRAENGHLNVEVDEVLEHNGEPRRATADVKVTWRNGRIHEMQVVWRG
protease stability score: 0.27

DDEAKDIVEEVVREGDFRQHMRLADEDAKLEYGDKRLHGRERVSDMAQKINERVDHLEVESVSVRGEEVIITLVLNVDGQKFRMKLVMDVQGDKIKSVKLEARTEDNKKLMDRAFS
protease stability score: 0.012

DDEAKDVVDTFMHAVRFGDPDKVDRNIDKDVRLRYGDTEVHGREDAKTYIEDLRDESRVKINEYSATAHNGKADLDADMSFTRNGQPRKRKMKVTAEVHNGHIKELDVQWRP
protease stability score: -0.313

DDEAKEHVEDFIRALKDNNPDEVDEYIDKDAKVHVGDTIYHGREEVRRDVERKKRHLRFDYEDVKIEVHGEKVVAHMKVEYQHNGRPDKARVILDVRFHNGRVRSLHIQEQK
protease stability score: -0.095

DDEALRVYQEVLEAWKHGDEDRLRQLLDPNVSIDVGDKDVHGREDYVTKMVRKARELSFHFEHVHVDHDGDKATIQMVYVIDQNGEPDRTANNVKVDVQNGKIKEIRVSSDR
protease stability score: 0.622

DDEAMKQFRHWVEAYTTGDSQRLRELVDPNATVRVGDKTYTGMEDIAKNIHQQVRRQRFHVELKRVNNQPNRIEVDLDVTFNVNGKPIRIRLRMQAEMHNGRFKYIEVRFDPDEQRKLES
protease stability score: 0.861

DDEANKTAHELVRILQTGDDESFEKMVDPNVKVVIGDRTFKGSSEVRDYLRKRKENIHEDLQVKHVSASGNKAHLDLRFRNDKNGRPQERRLELDVVFHNGKVKNVVYHWDG
protease stability score: 1.39

DDEANRVARHFVKALRKGDPDRLREMVDPNAKVVVGDQSWHGRDSLHHILEREIKEIRISIKDVKFQDQGDKANVEMRVESKHNGQPSESSSSVIVVVRNGRIQEIDMKTSG
protease stability score: 0.291

DDEANTVFREQLHQLEEGNHKEVAKNFDPNVRVSVGDRSIHGSEEVNTRIRRQAHESRIQVDHMSDDNSNGRVTMSADQVVNENGKPSTHRYKLTARVHNGKVKSMVITRDG
protease stability score: -0.575

DDEAQKLAEDYLTALQNNNPDKVIELLDPNARAEYGDKTYHGREQIHHFLRQFHKQARLQFTSYDVEVKNGQARLHMRVQVNHNGEPSQYEASIRISVHNGRMKEVQLQWSN
protease stability score: 1.58

DDEAQRIVHKFVRAMQTNDPDSVEKLLDKNARIEYGDKTIHGNSQAREEVEKTKNQARFQIDSYRVQEEPGRAVLDQKVTFRINGQPDQMRHTLYFDFHNGRVTNLHMHIDEDDYQRHRG
protease stability score: -0.019

DDEAQRVFEDWLENVKKGDEDHAVQLADPNADFVIGDKTYHGREQLKREIKHERDRLRREMRIQDFDDQPPRIDIKFEFTNQHNGKPSSDTAVMKLQMHNGDVQALVVTQHR
protease stability score: -0.302

DDEARKRIRTYWELYNQGNESKLEEMVDKDVRFEVGDKTIEGRRQVSTQLHREVREADVRVDIESIHVTGNKVDVEFRHSRDHNGQPETDQQRAEFNMDNGKIQSVVHRKDG
protease stability score: -0.204

DDEARNLVSEWLKAVETGDPDRVSQNMDPNASYHIGEWNVTGRETVNKLLDDVKTRLRVQFNIQHLDANGDTVDLRAMVLYEHNGKPDTKVYHFKFQQHNGKLVDVRATEDG
protease stability score: 0.736

DDEARRVAETVMTAVSRGDEEKVKEMFDPNARFRVGNKEISGRENYADWLRKLQEHARVDVSDVKAKDQGDEVTAKVRFVLSVDGTPHTMNVDVHFSVDNGKIIDYKQRFDEDDLRRILK
protease stability score: -0.155

DDEAVRAAKRAFEAWIENDPEKMKHQVDENAHLHYGDKEVHGREDANRQVHEDERQMRIELRSVTFQHHNGRAKIDMKYVLDHNGKPETRKFDATAEARNGKITKMSIDVHQ
protease stability score: -0.077
